The target of test [1] is MnxG (Bacillus sp. PL-12). The test can be described thus: native MS; surface-induced dissociation (SID) of the isolated 29+ Mnx complex at a low collision voltage of 40 V, ion mobility-MS; hexamer assigned after removal of most bound copper with EDTA.
Test [2] has as its target MnxF (Bacillus sp. PL-12). The description is as above.

Regarding MnxE3F3 hexamer (complex), the stoichiometry N (MnxG per hexamer) in test [1] worked out at 1.

Turning to MnxE (natural protein), the stoichiometry N (MnxE per MnxF (3:3)) in test [2] stood at 1. In addition, the stoichiometry N (MnxE per MnxG) in test [1] turned out to be 3.

In test [1], MnxF (natural protein) registered a stoichiometry N (MnxF per MnxG) of 3.

(Values after PMC5622069.)
